Reference: article PMC12175901

Experiments:
[1] = biological target: full-length BicD2 (zz-TEV-Halo-hBicD2^FL-6×His) (human) (UniProt Q8TD16); assay: TIRF microtubule recruitment assay; Nup358^min-zip labeled at 488 nm, full-length hBicD2, dynein and dynactin (1:1:2:2), 10 nM dynein; with all, or without dynein or BicD2; microtubules labeled with Alexa Fluor 647
[2] = biological target: HIV-1 capsid capsid (Human immunodeficiency virus 1) (UniProt O93182); details: cited from earlier work
[3] = biological target: recombinant human cytoplasmic dynein (full-length dynein complex) (human) (UniProt Q14204); assay: TIRF microtubule recruitment assay
[4] = biological target: recombinant human cytoplasmic dynein (full-length dynein complex) (human) (UniProt Q14204); assay: single-molecule TIRF colocalization
[5] = biological target: purified HIV-1 cores labelled with GFP-Vpr (HIV-1) (UniProt P12520); assay: TIRF fluorescence intensity against a standard curve
Chain of purified HIV-1 cores labelled with GFP-Vpr (HIV-1) (P12520 whole entry, looked up): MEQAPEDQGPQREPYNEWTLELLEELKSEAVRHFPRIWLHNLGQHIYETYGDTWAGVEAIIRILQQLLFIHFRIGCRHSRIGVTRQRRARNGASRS

Chain of purified HIV-1 cores labelled with GFP-Vpr (P12520 whole entry, looked up): as above
Chain of full-length BicD2 (zz-TEV-Halo-hBicD2^FL-6×His) (human) (Q8TD16 whole entry): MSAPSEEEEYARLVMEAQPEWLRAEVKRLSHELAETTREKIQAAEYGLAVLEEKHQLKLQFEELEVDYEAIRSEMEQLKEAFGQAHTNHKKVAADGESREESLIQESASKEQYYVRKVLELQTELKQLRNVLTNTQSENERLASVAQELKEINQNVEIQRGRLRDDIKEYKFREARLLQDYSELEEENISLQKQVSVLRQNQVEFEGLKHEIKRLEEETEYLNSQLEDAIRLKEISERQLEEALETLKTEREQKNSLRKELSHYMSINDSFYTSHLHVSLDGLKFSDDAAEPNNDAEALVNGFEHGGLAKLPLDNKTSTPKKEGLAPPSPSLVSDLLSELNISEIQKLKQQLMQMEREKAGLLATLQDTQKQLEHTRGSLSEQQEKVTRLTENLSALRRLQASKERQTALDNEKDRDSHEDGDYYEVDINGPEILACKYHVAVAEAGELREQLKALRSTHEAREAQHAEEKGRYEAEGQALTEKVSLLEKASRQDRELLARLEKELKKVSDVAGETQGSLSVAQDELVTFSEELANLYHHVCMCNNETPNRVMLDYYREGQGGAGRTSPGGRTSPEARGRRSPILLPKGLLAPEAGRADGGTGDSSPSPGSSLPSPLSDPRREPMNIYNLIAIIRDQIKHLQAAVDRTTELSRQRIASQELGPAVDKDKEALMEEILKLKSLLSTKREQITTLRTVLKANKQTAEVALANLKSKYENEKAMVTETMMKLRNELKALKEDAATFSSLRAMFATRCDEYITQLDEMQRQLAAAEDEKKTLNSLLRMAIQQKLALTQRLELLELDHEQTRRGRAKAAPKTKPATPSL
Chain of HIV-1 capsid capsid (Human immunodeficiency virus 1) (O93182 133-363): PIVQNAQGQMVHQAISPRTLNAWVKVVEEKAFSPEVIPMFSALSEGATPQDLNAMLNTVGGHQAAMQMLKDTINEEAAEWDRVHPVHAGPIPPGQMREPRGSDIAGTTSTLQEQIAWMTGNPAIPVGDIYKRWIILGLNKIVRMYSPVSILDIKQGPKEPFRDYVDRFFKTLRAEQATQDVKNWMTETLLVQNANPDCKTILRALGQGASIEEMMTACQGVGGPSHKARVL
Chain of CypA (P62937 2-165): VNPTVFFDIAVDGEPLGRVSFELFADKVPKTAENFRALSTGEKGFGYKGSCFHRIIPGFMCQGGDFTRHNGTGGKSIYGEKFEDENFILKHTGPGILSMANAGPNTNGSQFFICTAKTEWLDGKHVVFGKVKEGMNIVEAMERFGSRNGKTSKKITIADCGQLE

Nup358^min-zip [hNup358(2148 to 2240)-GCN4-SnapTag] (from UniProt P49792 2148-2240)
fold loss of microtubule recruitment when BicD2 is left out [1]: 15 fold

CypA (from UniProt P62937)
Kd [2]: > 13 µM

purified HIV-1 cores labelled with GFP-Vpr (from UniProt P12520 1-96) (complex)
fold increase of cores on microtubules (with dynein, dynactin and BicD2^FL) [3]: 3.4 fold
percent of microtubule-bound cores colocalized with dynein [4]: 75.6%

recombinant human cytoplasmic dynein (full-length dynein complex) (from UniProt Q14204 1-4646; Q13409 1-638; O43237 1-492; P63172 1-113; P63167 1-89; Q9NP97 1-96)
stoichiometry N (dynein dimers per HIV-1 core) [5]: 11.6
